Data reported in article PMC3531522, “Nasal Colonisation by Staphylococcus aureus Depends upon Clumping Factor B Binding to the Squamous Epithelial Cell Envelope Protein Loricrin” (PLoS Pathogens, 2012).

B4: Recombinant ClfB N2N3 (rClfB_(201–542)) (domain or fragment)
chain: AEPVVNAADAKGTNVNDKVTASNFKLEKTTFDPNQSGNTFMAANFTVTDKVKSGDYFTAKLPDSLTGNGDVDYSNSNNTMPIADIKSTNGDVVAKATYDILTKTYTFVFTDYVNNKENINGQFSLPLFTDRAKAPKSGTYDANINIADEMFNNKITYNYSSPIAGIDKPNGANISSQIIGVDTASGQNTYKQTVFVNPKQRVLGNTWVYIKGYQDKIEESSGKVSATDTKLRIFEVNDTSKLSDSYYADPNDSNLKEVTDQFKNRIYYEHPNVASIKFGDITKTYVVLVEGHYDNTGKNLKTQVIQENVDPVTNRDYSIFGWNNENVVRYGGGSADGDSAVN
notes: Clumping factor B (ClfB) of S. aureus, amino acids 201-542 (subdomains N2 and N3 of the A domain), amplified from plasmid pCU1:clfB; also called ClfB N2N3_(201–542); ClfB N23_(201–542); not shown: His6, N-terminal, kept

Assays:
Assay in all cases: SPR; BIAcore X100; GST-tagged ligand captured on a CM5 chip coated with goat anti-GST IgG, GST on the reference cell; increasing concentrations of rClfB_(201–542) in PBS passed in succession without regeneration (single cycle); KD from response at equilibrium against concentration
[1] = target: GST-tagged human loricrin loop region 2v (human)
[2] = target: GST-tagged human loricrin loop region 1A (human)
[3] = target: GST-tagged human loricrin loop region 3 (human)
[4] = target: GST-tagged human loricrin loop region 2 (human)
[5] = target: GST-tagged human loricrin loop region 1B (human)
[6] = target: B4; conditions: both partners purified
[7] = target: B4; conditions: both partners purified; remark: listed apart in the source
[8] = target: T1, GST-murine loricrin_(1–480) (murine, UniProt P18165 1-486); conditions: both partners purified
T1 construct: Loricrin, murine, full length, printed as residues 1-480; The printed length (480) may differ from that of the UniProt entry; also called MLor; GST-MLor; source: DNA codon optimised for E. coli, in pGEX-4T; purified on GSTrap FF; not shown: GST, N-terminal, kept
T1 sequence (looked up): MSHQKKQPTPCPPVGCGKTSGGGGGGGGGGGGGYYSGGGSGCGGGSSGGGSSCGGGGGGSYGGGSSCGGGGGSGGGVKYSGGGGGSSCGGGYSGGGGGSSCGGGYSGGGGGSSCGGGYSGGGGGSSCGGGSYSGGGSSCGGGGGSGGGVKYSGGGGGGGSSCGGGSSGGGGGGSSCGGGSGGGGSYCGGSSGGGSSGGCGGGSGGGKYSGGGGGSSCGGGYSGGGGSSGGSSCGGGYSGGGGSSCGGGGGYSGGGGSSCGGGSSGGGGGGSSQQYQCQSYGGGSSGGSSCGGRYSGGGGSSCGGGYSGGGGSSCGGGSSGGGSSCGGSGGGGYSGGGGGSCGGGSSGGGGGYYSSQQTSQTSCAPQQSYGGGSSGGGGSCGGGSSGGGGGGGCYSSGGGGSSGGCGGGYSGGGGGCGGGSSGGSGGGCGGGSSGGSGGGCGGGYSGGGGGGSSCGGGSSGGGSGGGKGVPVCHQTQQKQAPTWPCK

## Recombinant ClfB N2N3 (rClfB_(201–542)) (from UniProt O86476 201-542) (domain or fragment)
[1]
  Kd: 2210 nM
[2]
  Kd: 16.7 µM
[3]
  Kd: 5.47 µM
[4]
  Kd: 3.31 µM
[5]
  Kd: 34.5 µM

B1: GST-murine K10_(454–570) (domain or fragment, UniProt P02535 454-570, looked up)
chain: EGSSSGGGGGRRGGSGGGSYGGSSGGGSYGGSSGGGGSYGGSSGGGGSYGGGSSGGGSHGGSSGGGYGGGSSSGGAGGHGGSSGGGYGGGSSSGGQGGSGGFKSSGGGDQSSKGPRY
notes: Cytokeratin 10 (K10), murine, residues 454-570 (C-terminal tail region); also called MK10; GST-MK10; source: DNA codon optimised for E. coli, in pGEX-4T; purified on GSTrap FF; not shown: GST, N-terminal, kept
[6]
  Kd: 14.4 µM

B2: GST-Fgα_(316–367) (domain or fragment, UniProt P02671 335-386, looked up)
chain: NSGSSGTGSTGNQNPGSPRPGSTGTWNPGSSERGSAGHWTSESSVSGSTGQW
notes: Fibrinogen α-chain, residues 316-367, repeat domain 5 of the αC region; also called repeat domain 5 of the αC region of Fg
[6]
  Kd: 5.25 µM
[7]
  Kd: 5.52 ± 1.5 µM

B3: GST-human loricrin_(1–315) (natural protein, UniProt P23490 1-312, looked up)
chain: MSYQKKQPTPQPPVDCVKTSGGGGGGGGSGGGGCGFFGGGGSGGGSSGSGCGYSGGGGYSGGGCGGGSSGGGGGGGIGGCGGGSGGSVKYSGGGGSSGGGSGCFSSGGGGSGCFSSGGGGSSGGGSGCFSSGGGGSSGGGSGCFSSGGGGFSGQAVQCQSYGGVSSGGSSGGGSGCFSSGGGGGSVCGYSGGGSGCGGGSSGGSGSGYVSSQQVTQTSCAPQPSYGGGSSGGGGSGGSGCFSSGGGGGSSGCGGGSSGIGSGCIISGGGSVCGGGSSGGGGGGSSVGGSGSGKGVPICHQTQQKQAPTWPSK
notes: Loricrin, human, full length, printed as residues 1-315 (S1 to K315); also called HLor; Hlor; source: DNA codon optimised for E. coli, in pGEX-4T; purified on GSTrap FF; not shown: GST, N-terminal, kept
[6]
  Kd: 4.33 µM

## B4
[8]
  Kd: 15.7 µM

B5: GST-human K10_(544–563) (peptide)
chain: GGSSGGGSSSGGGYGGGSSS
notes: Cytokeratin 10 (K10), human, residues 544-563 (C-terminal tail region); also called HK10; GST-HK10; source: DNA codon optimised for E. coli, in pGEX-4T; purified on GSTrap FF; not shown: GST, N-terminal, kept
[6]
  Kd: 7.89 µM
